From patent US20230255948

Target: GST-OPNR153A (E. coli produced mutant OPN with the arginine in the thrombin cleavage site mutated to alanine) (UniProt P10923)

## Thrombin
  thrombin cleavage (time course, 10 nM thrombin, SDS-PAGE): resistant to thrombin cleavage
